How the values were obtained:
[1] = molecular target: T1, RAD-displayed Fragment 1A of human LGR5 (human); assay: bio-layer interferometry (Octet), captured RAD-displayed fragment, 10 µM Fragment 1 peptide included
T1 construct: also called Frag1A
T1 sequence (O75473 22-37, looked up): GSSPRSGVLLRGCPTH

murine LGR4 transgene = molecular target: T2, murine LGR4 transgene (mouse, UniProt A2ARI4 25-951); assay: western blot of lysates of HEK293T cells expressing the LGR transgenes
T2 construct: whole, on cells; Overexpressed in HEK293T cells with N-terminal HA tag, V2 receptor tail and eGFP; also tested as lysate; also called mLGR4

human LGR6 transgene = molecular target: T3, human LGR6 transgene (human, UniProt Q9HBX8 25-967); assay: as above
T3 construct: whole, on cells; Overexpressed in HEK293T cells with N-terminal HA tag, V2 receptor tail and eGFP; also tested as lysate; also called hLGR6; LGR6-eGFP
T3 sequence (looked up): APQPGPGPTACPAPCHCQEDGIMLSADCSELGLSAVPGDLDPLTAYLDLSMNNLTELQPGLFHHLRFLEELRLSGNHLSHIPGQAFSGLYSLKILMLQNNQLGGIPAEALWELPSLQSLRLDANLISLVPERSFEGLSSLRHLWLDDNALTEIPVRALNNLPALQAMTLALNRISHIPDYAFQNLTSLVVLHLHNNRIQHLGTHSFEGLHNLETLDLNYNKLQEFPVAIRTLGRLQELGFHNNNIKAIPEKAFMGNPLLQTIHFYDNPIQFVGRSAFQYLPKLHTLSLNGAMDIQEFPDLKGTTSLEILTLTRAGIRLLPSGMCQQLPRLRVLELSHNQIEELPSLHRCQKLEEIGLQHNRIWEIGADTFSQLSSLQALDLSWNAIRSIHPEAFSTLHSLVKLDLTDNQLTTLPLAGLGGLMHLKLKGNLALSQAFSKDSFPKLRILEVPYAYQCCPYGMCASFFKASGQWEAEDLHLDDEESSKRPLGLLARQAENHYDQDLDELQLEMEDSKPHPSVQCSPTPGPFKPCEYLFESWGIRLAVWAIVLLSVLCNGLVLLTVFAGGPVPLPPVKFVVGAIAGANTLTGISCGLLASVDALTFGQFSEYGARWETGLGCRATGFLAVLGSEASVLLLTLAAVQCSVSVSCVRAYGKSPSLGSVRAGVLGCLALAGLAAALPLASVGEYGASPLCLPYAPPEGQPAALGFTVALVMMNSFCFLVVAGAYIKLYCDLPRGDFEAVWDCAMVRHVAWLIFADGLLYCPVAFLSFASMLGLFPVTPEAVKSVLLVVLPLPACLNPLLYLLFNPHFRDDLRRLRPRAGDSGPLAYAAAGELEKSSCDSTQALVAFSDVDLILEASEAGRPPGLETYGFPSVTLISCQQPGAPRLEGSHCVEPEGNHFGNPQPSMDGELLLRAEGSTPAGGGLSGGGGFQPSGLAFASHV

murine LGR6 transgene = molecular target: T4, murine LGR6 transgene (mouse, UniProt Q3UVD5 23-967); assay: as above
T4 construct: whole, on cells; also called mLGR6
T4 sequence (looked up): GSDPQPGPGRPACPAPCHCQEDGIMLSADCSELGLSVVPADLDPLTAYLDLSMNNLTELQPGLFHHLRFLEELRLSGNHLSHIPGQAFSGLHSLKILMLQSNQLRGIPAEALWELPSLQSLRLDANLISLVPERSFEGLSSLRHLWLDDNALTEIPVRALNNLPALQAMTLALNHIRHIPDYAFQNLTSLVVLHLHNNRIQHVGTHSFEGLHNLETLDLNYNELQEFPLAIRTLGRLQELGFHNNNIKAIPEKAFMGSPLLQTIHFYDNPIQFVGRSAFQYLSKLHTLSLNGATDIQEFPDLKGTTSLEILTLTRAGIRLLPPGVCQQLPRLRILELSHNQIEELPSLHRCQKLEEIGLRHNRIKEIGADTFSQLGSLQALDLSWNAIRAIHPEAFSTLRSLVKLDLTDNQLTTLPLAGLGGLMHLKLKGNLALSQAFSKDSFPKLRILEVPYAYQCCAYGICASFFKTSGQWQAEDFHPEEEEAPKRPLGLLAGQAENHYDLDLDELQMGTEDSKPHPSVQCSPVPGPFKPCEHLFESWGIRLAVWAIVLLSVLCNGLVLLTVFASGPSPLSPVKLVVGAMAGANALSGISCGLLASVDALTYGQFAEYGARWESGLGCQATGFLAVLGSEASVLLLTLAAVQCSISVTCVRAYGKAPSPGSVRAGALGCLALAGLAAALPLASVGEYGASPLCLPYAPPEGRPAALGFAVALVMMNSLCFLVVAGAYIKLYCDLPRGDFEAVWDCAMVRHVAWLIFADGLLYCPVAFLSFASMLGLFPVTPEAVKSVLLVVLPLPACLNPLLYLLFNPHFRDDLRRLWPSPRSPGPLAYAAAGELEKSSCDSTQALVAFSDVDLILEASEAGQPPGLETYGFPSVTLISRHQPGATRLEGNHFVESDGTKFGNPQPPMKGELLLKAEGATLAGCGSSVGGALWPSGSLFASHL

human LGR4 transgene = molecular target: T5, human LGR4 transgene (human, UniProt Q9BXB1 25-951); assay: as above
T5 construct: whole, on cells; Overexpressed in HEK293T cells with N-terminal HA tag, V2 receptor tail and eGFP; also tested as lysate; also called hLGR4; LGR4-eGFP

B1: α-LGR5 clone 1 (antibody, mouse IgG1, kappa, V domains shown)
VH: QVQLQQPGAELVKPGASVKLSCKASGYTFTSYWMQWVKQRPGQGLEWIGEIDPSDYYTNYNQKFKGKATLTVDTSSSTAYMQLSSLTSEDSAVYYCARSLSGYVDYWGQGTTLTVSS
VL: DIQMTQSTSSLSASLGDRVTINCRASQDIRNRLNWYQQKPDGTVKLLISYRSRLQSGVPSRFSGSGSGTEYSLTISNLEQEDIATYFCQQGNTLPPTFGGGTKLEVRR
notes: Murine monoclonal antibody from hybridoma; also called hybridoma clone 1; antibody 1
Kd [1]: 0.76 nM | binding result (murine LGR4 transgene): no binding | binding result (human LGR6 transgene): no binding | binding result (murine LGR6 transgene): no binding | binding result (human LGR4 transgene): no binding

B2: α-LGR5 clone 4 (antibody, mouse IgG2b, kappa, V domains shown)
VH: QVQLQQPGAELVKPGASVKLSCKASGYTFTDYWMQWVKQRPGQGLEWIGEIDPSDSYTNYNQKFQGKATLTVDTSSSTAYIQLSSLTSDDSAVYYCARSLSGSVDYWGQGTTLTVSS
VL: DIQMTQTTSSLSASLGDRVTISCRASQDISNRLNWYQQKPDGTVKLLISYRSRLQSGVPSRFSGSGSGTDYSLTITNLEQEDIATYFCQQGNTLPPTFGGGTKLEVRR
notes: Murine monoclonal antibody from hybridoma; also called hybridoma clone 4; antibody 4
Kd [1]: 1.4 nM | binding result (murine LGR4 transgene): no binding | binding result (human LGR6 transgene): no binding | binding result (murine LGR6 transgene): no binding | binding result (human LGR4 transgene): no binding

B3: α-LGR5 clone 3 (antibody, mouse IgG1, kappa, V domains shown)
VH: QVQLQQPGAELVKPGASVKLSCKASGYTFTSYWMQWVKQRPGQGLEWIGEIDPSDSYSNYNQKFKGKATLTVDTSSSTAYMQLSSLTSEDSAVYYCARSLSGYVDYWGQGTTLTVSS
VL: DIQMTQTTSSLSASLGDRVTISCRASQDISNRLNWYQQKPDGTVKLLISYRSRLQSGVPSRFSGSGSGTDYSLTISNLEEEDIATYFCQQGNTLPPTFGGGTKLEVRR
notes: Murine monoclonal antibody from hybridoma; also called hybridoma clone 3; antibody 3
Kd [1]: 1 nM | binding result (murine LGR4 transgene): no binding | binding result (human LGR6 transgene): no binding | binding result (murine LGR6 transgene): no binding | binding result (human LGR4 transgene): no binding

B4: hybridoma clone 12 (antibody, V domains shown)
VH: EVQLQQSGPELVKPGASVKISCKASGYTFTDYYMNWVKQSHGKSLEWIGDINPNNGGTIYNQKFKGKATLTVDKSSSTAYMELRSLTSEDSAVYYCASGYLFDYWGPGTTLTVSS
VL: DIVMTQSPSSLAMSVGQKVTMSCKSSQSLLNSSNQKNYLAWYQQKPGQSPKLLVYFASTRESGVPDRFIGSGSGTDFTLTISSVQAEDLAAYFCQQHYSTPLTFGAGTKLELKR
notes: Murine antibody; also called antibody 12
binding result (murine LGR4 transgene): no binding | binding result (human LGR6 transgene): no binding | binding result (murine LGR6 transgene): no binding | binding result (human LGR4 transgene): no binding
